Test [1] concerns the target mouse GITR (on activated mouse T cells) (mouse) (UniProt O35714). Briefly: in vitro binding on activated mouse CD8+ T cells.
The target is the same in test [2]. Briefly: in vitro binding on activated mouse CD4+ T cells.
Test [3] has as its target T1, human GITR (on activated human T cells) (human, UniProt Q9Y5U5 26-241).
T1 construct: also called glucocorticoid-inducible TNF receptor; TNFRSF18
T1 sequence: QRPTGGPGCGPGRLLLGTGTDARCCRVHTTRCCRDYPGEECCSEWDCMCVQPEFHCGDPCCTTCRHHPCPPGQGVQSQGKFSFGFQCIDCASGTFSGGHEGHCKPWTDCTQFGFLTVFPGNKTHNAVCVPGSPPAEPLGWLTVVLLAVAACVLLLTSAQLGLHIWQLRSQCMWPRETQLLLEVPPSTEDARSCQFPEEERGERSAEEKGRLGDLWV
Briefly: in vitro binding on activated human CD8+ T cells.

Test [4] deals with T1, human GITR (on activated human T cells). Briefly: in vitro binding on activated human CD4+ T cells.

mouse GITR (on activated mouse T cells) (mouse), sequence (O35714 20-228): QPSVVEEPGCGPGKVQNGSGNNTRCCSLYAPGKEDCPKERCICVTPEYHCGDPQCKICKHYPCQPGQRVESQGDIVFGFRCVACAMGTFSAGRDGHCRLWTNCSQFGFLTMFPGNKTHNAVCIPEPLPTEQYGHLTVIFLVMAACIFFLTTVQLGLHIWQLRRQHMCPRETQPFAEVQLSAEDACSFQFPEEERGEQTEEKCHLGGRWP

Broadly, the EC50 is the concentration needed to bring the measured effect to its halfway point. High values mean a need for much substance, low ones an effect from little substance. Turning to DTA1-mIgG2b (antibody), the concentration for a half-maximal effect (EC50) in test [1] and in test [2] was 0.33 nM throughout.
In the case of DTA1-mIgG2a (antibody), the concentration giving a half-maximal response (EC50) in test [1] is 0.17 nM; in test [2], 0.14 nM.

B1: 28F3.IgG1 (antibody, V domains shown)
VH: QVQLVESGGGVVQPGRSLRLSCAASGFTFSSYGMHWVRQAPGKGLEWVAVIWYEGSNKYYADSVKGRFTISRDNSKNTLYLQMNSLRAEDTAVYYCARGGSMVRGDYYYGMDVWGQGTTVTVSS
VL: AIQLTQSPSSLSASVGDRVTITCRASQGISSALAWYQQKPGKAPKLLIYDASSLESGVPSRFSGSGSGTDFTLTISSLQPEDFATYYCQQFNSYPYTFGQGTKLEIKR
notes: Fully human IgG1 agonist antibody to GITR; also called GITR Ab; anti-GITR agonist Ab 28F3.IgG1
In the case of B1, the concentration giving a half-maximal response (EC50) in test [3] was determined as 0.44 nM; in test [4], 0.37 nM.

Values taken from patent US20230416388A1 (Bristol-Myers Squibb, published 2023).
